Results taken from paper PMC7891324.

Molecular target: microtubules assembled from highly purified (MAP-free) porcine brain tubulin (porcine) (UniProt P02550)
Assay: co-sedimentation; MTs assembled from 25 µM PC-purified (MAP-free) porcine brain tubulin in PEM (100 mM Pipes pH 6.8, 2 mM EGTA, 1 mM MgCl2) with 1 mM GTP, 10% glycerol, 1 mM DTT, 0.5% Triton X-100, 1 h 37°C; 2.5 µM recombinant plectin fragment added for 60 min; 45 000 g 30 min 37°C; supernatant and pellet by SDS-PAGE, Coomassie, densitometry

percent co-sedimented with MTs [%] | Substance
52 | plectin fragment P1c(2α3α)-8 (exons 1c(2α3α)-8), untagged (domain or fragment)
36.5 | plectin fragment P2(2α3α)-8 (exons 2(2α3α)-8), untagged (domain or fragment)
